Data as given in the RNAGym collection of RNA variant scans (doi:10.1093/nar/gkz1192).

B1: CPEB3 Ribozyme (parent)
chain: UAACAGGGGGCCACAGCAGAAGCGUUCACGUCGCAGCCCCUGUCAGAUUCUGGUGAAUCUGCGAAUUCUGCUGUAUAUCUC

Variants of: B1
Assay: self-cleavage, relative activity (ratio to wild type); higher = more cleavage; in vitro, sequencing
Summary of the method: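 For each CPEB3 ribozyme variant, relative activity is its cleaved/total read fraction divided by the unmutated ribozyme's. Barcoded error-prone PCR libraries were transcribed by T7 RNA polymerase (5 hours, 37°C) and held in DNase I for 15 min before an EDTA stop, with cleavage occurring throughout. Template-switching reverse transcription and Illumina sequencing were used to read the RNAs. A 5-read minimum applied, and results are the mean of three batches.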

Variant	self-cleavage
UAACAGGGGGCCACAGCAGAAGCGUUCACGUCGCAGCCCCUGUCAGAUUCUGGUGAAUCUGCGUAUUCUGAUGUAUAUCUC [A64U C71A]	0.18
UAACAGGGGGCCACAGCAGAAGCGUUCACGUCGCAGCCCCUGUCAGAUUCUGGUGAAUCUGCGUAUUCUGCUGUAUAUCUA [A64U C81A]	0.42
UAACAGGGGGCCACAGCAGAAGCGUUCACGUCGCAGCCCCUGUCAGAUUCUGGUGAAUCUGCGCAUUCUGCCGUAUAUCUC [A64C U72C]	0.48
UAACAGGGGGCCACAGCAGAAGCGUUCACGUCGCAGCCCCUGUCAGAUUCUGGUGAAUCUGCGCAUUCUGCAGUAUAUCUC [A64C U72A]	0.27
UAACAGGGGGCCACAGCAGAAGCGUUCACGUCGCAGCCCCUGUCAGAUUCUGGUGAAUCUGCGGAUUCUGCUGUAUUUCUC [A64G A77U]	1.03
UAACAGGGGGCCACAGCAGAAGCGUUCACGUCGCAGCCCCUGUCAGAUUCUGGUGAAUCUGCGGAUUCUGCUGUAUGUCUC [A64G A77G]	0.84
UAACAGGGGGCCACAGCAGAAGCGUUCACGUCGCAGCCCCUGUCAGAUUCUGGUGAAUCUGCGGAUUCUGCUGUAUAUCGC [A64G U80G]	0.67
UAACAGGGGGCCACAGCAGAAGCGUUCACGUCGCAGCCCCUGUCAGAUUCUGGUGAAUCUGCGGAUUCUGCUGUAUAUCCC [A64G U80C]	0.95
UAACAGGGGGCCACAGCAGAAGCGUUCACGUCGCAGCCCCUGUCAGAUUCUGGUGAAUCUGCGGAUUCUGCUGUAUAUCAC [A64G U80A]	1.03
UAACAGGGGGCCACAGCAGAAGCGUUCACGUCGCAGCCCCUGUCAGAUUCUGGUGAAUCUGCGCAUCCUGCUGUAUAUCUC [A64C U67C]	0.2
UAACAGGGGGCCACAGCAGAAGCGUUCACGUCGCAGCCCCUGUCAGAUUCUGGUGAAUCUGCGCAUUCUGCUGCAUAUCUC [A64C U74C]	0.44
UAACAGGGGGCCACAGCAGAAGCGUUCACGUCGCAGCCCCUGUCAGAUUCUGGUGAAUCUGCGGUUUCUGCUGUAUAUCUC [A64G A65U]	0.19
UAACAGGGGGCCACAGCAGAAGCGUUCACGUCGCAGCCCCUGUCAGAUUCUGGUGAAUCUGCGGGUUCUGCUGUAUAUCUC [A64G A65G]	0.28
UAACAGGGGGCCACAGCAGAAGCGUUCACGUCGCAGCCCCUGUCAGAUUCUGGUGAAUCUGCGGCUUCUGCUGUAUAUCUC [A64G A65C]	0.31
UAACAGGGGGCCACAGCAGAAGCGUUCACGUCGCAGCCCCUGUCAGAUUCUGGUGAAUCUGCGUAUUCUGCUGUAUAUAUC [A64U C79A]	0.36
UAACAGGGGGCCACAGCAGAAGCGUUCACGUCGCAGCCCCUGUCAGAUUCUGGUGAAUCUGCGUAUUCUGCUGUAUAUUUC [A64U C79U]	0.39
UAACAGGGGGCCACAGCAGAAGCGUUCACGUCGCAGCCCCUGUCAGAUUCUGGUGAAUCUGCGGAUUCUGCUGUAUAUUUC [A64G C79U]	1.1
UAACAGGGGGCCACAGCAGAAGCGUUCACGUCGCAGCCCCUGUCAGAUUCUGGUGAAUCUGCGGAUUCUGCUGUAUAUAUC [A64G C79A]	0.84
UAACAGGGGGCCACAGCAGAAGCGUUCACGUCGCAGCCCCUGUCAGAUUCUGGUGAAUCUGCGGAUUCAGCUGUAUAUCUC [A64G U69A]	0.38
UAACAGGGGGCCACAGCAGAAGCGUUCACGUCGCAGCCCCUGUCAGAUUCUGGUGAAUCUGCGGAUUCGGCUGUAUAUCUC [A64G U69G]	0.44
UAACAGGGGGCCACAGCAGAAGCGUUCACGUCGCAGCCCCUGUCAGAUUCUGGUGAAUCUGCGGAUUCCGCUGUAUAUCUC [A64G U69C]	0.41
UAACAGGGGGCCACAGCAGAAGCGUUCACGUCGCAGCCCCUGUCAGAUUCUGGUGAAUCUGCGGAUUCUGUUGUAUAUCUC [A64G C71U]	0.34
UAACAGGGGGCCACAGCAGAAGCGUUCACGUCGCAGCCCCUGUCAGAUUCUGGUGAAUCUGCGGAUUCUGGUGUAUAUCUC [A64G C71G]	0.31

Variant	self-cleavage
UAACAGGGGGCCACAGCAGAAGCGUUCACGUCGCAGCCCCUGUCAGAUUCUGGUGAAUCUGCGCAUUCGGCUGUAUAUCUC [A64C U69G]	0.47
UAACAGGGGGCCACAGCAGAAGCGUUCACGUCGCAGCCCCUGUCAGAUUCUGGUGAAUCUGCGCAUUCCGCUGUAUAUCUC [A64C U69C]	0.4
UAACAGGGGGCCACAGCAGAAGCGUUCACGUCGCAGCCCCUGUCAGAUUCUGGUGAAUCUGCGGAUUCUGCUGUAAAUCUC [A64G U76A]	0.95
UAACAGGGGGCCACAGCAGAAGCGUUCACGUCGCAGCCCCUGUCAGAUUCUGGUGAAUCUGCGGAUUCUGCUGUACAUCUC [A64G U76C]	0.94
UAACAGGGGGCCACAGCAGAAGCGUUCACGUCGCAGCCCCUGUCAGAUUCUGGUGAAUCUGCGGAUUCUCCUGUAUAUCUC [A64G G70C]	0.21
UAACAGGGGGCCACAGCAGAAGCGUUCACGUCGCAGCCCCUGUCAGAUUCUGGUGAAUCUGCGGAUUCUUCUGUAUAUCUC [A64G G70U]	0.29
UAACAGGGGGCCACAGCAGAAGCGUUCACGUCGCAGCCCCUGUCAGAUUCUGGUGAAUCUGCGGAUUCUACUGUAUAUCUC [A64G G70A]	0.37
UAACAGGGGGCCACAGCAGAAGCGUUCACGUCGCAGCCCCUGUCAGAUUCUGGUGAAUCUGCGUCUUCUGCUGUAUAUCUC [A64U A65C]	0.13
UAACAGGGGGCCACAGCAGAAGCGUUCACGUCGCAGCCCCUGUCAGAUUCUGGUGAAUCUGCGUGUUCUGCUGUAUAUCUC [A64U A65G]	0.25
UAACAGGGGGCCACAGCAGAAGCGUUCACGUCGCAGCCCCUGUCAGAUUCUGGUGAAUCUGCGUUUUCUGCUGUAUAUCUC [A64U A65U]	0.37
UAACAGGGGGCCACAGCAGAAGCGUUCACGUCGCAGCCCCUGUCAGAUUCUGGUGAAUCUGCGCAUUCUGCUGUAUAUCCC [A64C U80C]	0.38
UAACAGGGGGCCACAGCAGAAGCGUUCACGUCGCAGCCCCUGUCAGAUUCUGGUGAAUCUGCGGAUGCUGCUGUAUAUCUC [A64G U67G]	0.44
UAACAGGGGGCCACAGCAGAAGCGUUCACGUCGCAGCCCCUGUCAGAUUCUGGUGAAUCUGCGGAUCCUGCUGUAUAUCUC [A64G U67C]	0.25
UAACAGGGGGCCACAGCAGAAGCGUUCACGUCGCAGCCCCUGUCAGAUUCUGGUGAAUCUGCGGAUACUGCUGUAUAUCUC [A64G U67A]	0.38
UAACAGGGGGCCACAGCAGAAGCGUUCACGUCGCAGCCCCUGUCAGAUUCUGGUGAAUCUGCGGAUUCUGCCGUAUAUCUC [A64G U72C]	0.91
UAACAGGGGGCCACAGCAGAAGCGUUCACGUCGCAGCCCCUGUCAGAUUCUGGUGAAUCUGCGGAUUCUGCGGUAUAUCUC [A64G U72G]	0.87
UAACAGGGGGCCACAGCAGAAGCGUUCACGUCGCAGCCCCUGUCAGAUUCUGGUGAAUCUGCGGAUUCUGCAGUAUAUCUC [A64G U72A]	0.67
UAACAGGGGGCCACAGCAGAAGCGUUCACGUCGCAGCCCCUGUCAGAUUCUGGUGAAUCUGCGUAUUCUGCUGUAUAUCUC [A64U]	0.32
UAACAGGGGGCCACAGCAGAAGCGUUCACGUCGCAGCCCCUGUCAGAUUCUGGUGAAUCUGCGGAUUCUGCUGUAUAUCUC [A64G]	0.93
UAACAGGGGGCCACAGCAGAAGCGUUCACGUCGCAGCCCCUGUCAGAUUCUGGUGAAUCUGCGGAUUCUGCUGUAUAUCUU [A64G C81U]	0.91
UAACAGGGGGCCACAGCAGAAGCGUUCACGUCGCAGCCCCUGUCAGAUUCUGGUGAAUCUGCGGAUUCUGCUGUAUAUCUG [A64G C81G]	1.03
UAACAGGGGGCCACAGCAGAAGCGUUCACGUCGCAGCCCCUGUCAGAUUCUGGUGAAUCUGCGGAUUCUGCUGUAUAUCUA [A64G C81A]	1.02
UAACAGGGGGCCACAGCAGAAGCGUUCACGUCGCAGCCCCUGUCAGAUUCUGGUGAAUCUGCGGAUUCUGCUGUAUAGCUC [A64G U78G]	1.11

Variant	self-cleavage
UAACAGGGGGCCACAGCAGAAGCGUUCACGUCGCAGCCCCUGUCAGAUUCUGGUGAAUCUGCGGAUUCUGCUGUAUACCUC [A64G U78C]	0.77
UAACAGGGGGCCACAGCAGAAGCGUUCACGUCGCAGCCCCUGUCAGAUUCUGGUGAAUCUGCGGAUUCUGCUGUAUAACUC [A64G U78A]	1.07
UAACAGGGGGCCACAGCAGAAGCGUUCACGUCGCAGCCCCUGUCAGAUUCUGGUGAAUCUGCGUAUUCUACUGUAUAUCUC [A64U G70A]	0.21
UAACAGGGGGCCACAGCAGAAGCGUUCACGUCGCAGCCCCUGUCAGAUUCUGGUGAAUCUGCGUAUUCUCCUGUAUAUCUC [A64U G70C]	0.25
UAACAGGGGGCCACAGCAGAAGCGUUCACGUCGCAGCCCCUGUCAGAUUCUGGUGAAUCUGCGUAUUCUGCUGUUUAUCUC [A64U A75U]	0.45
UAACAGGGGGCCACAGCAGAAGCGUUCACGUCGCAGCCCCUGUCAGAUUCUGGUGAAUCUGCGUAUUCUGCUGUGUAUCUC [A64U A75G]	0.35
UAACAGGGGGCCACAGCAGAAGCGUUCACGUCGCAGCCCCUGUCAGAUUCUGGUGAAUCUGCGUAUUCUGCUGUCUAUCUC [A64U A75C]	0.5
UAACAGGGGGCCACAGCAGAAGCGUUCACGUCGCAGCCCCUGUCAGAUUCUGGUGAAUCUGCGGAUUCUGCUGGAUAUCUC [A64G U74G]	1.26
UAACAGGGGGCCACAGCAGAAGCGUUCACGUCGCAGCCCCUGUCAGAUUCUGGUGAAUCUGCGGAUUCUGCUGAAUAUCUC [A64G U74A]	1.2
UAACAGGGGGCCACAGCAGAAGCGUUCACGUCGCAGCCCCUGUCAGAUUCUGGUGAAUCUGCGGAUUCUGCUGCAUAUCUC [A64G U74C]	1.15
UAACAGGGGGCCACAGCAGAAGCGUUCACGUCGCAGCCCCUGUCAGAUUCUGGUGAAUCUGCGGAAUCUGCUGUAUAUCUC [A64G U66A]	0.32
UAACAGGGGGCCACAGCAGAAGCGUUCACGUCGCAGCCCCUGUCAGAUUCUGGUGAAUCUGCGGACUCUGCUGUAUAUCUC [A64G U66C]	0.34
UAACAGGGGGCCACAGCAGAAGCGUUCACGUCGCAGCCCCUGUCAGAUUCUGGUGAAUCUGCGUAUUCUGCUGUAUUUCUC [A64U A77U]	0.46
UAACAGGGGGCCACAGCAGAAGCGUUCACGUCGCAGCCCCUGUCAGAUUCUGGUGAAUCUGCGUAUUCUGCUGUAUGUCUC [A64U A77G]	0.39
UAACAGGGGGCCACAGCAGAAGCGUUCACGUCGCAGCCCCUGUCAGAUUCUGGUGAAUCUGCGGAUUCUGCUUUAUAUCUC [A64G G73U]	1.35
UAACAGGGGGCCACAGCAGAAGCGUUCACGUCGCAGCCCCUGUCAGAUUCUGGUGAAUCUGCGGAUUCUGCUAUAUAUCUC [A64G G73A]	1.24
UAACAGGGGGCCACAGCAGAAGCGUUCACGUCGCAGCCCCUGUCAGAUUCUGGUGAAUCUGCGUAUUAUGCUGUAUAUCUC [A64U C68A]	0.37
UAACAGGGGGCCACAGCAGAAGCGUUCACGUCGCAGCCCCUGUCAGAUUCUGGUGAAUCUGCGGAUUCUGCUGUGUAUCUC [A64G A75G]	0.71
UAACAGGGGGCCACAGCAGAAGCGUUCACGUCGCAGCCCCUGUCAGAUUCUGGUGAAUCUGCGGAUUCUGCUGUUUAUCUC [A64G A75U]	1.01
UAACAGGGGGCCACAGCAGAAGCGUUCACGUCGCAGCCCCUGUCAGAUUCUGGUGAAUCUGCGGAUUCUGCUGUCUAUCUC [A64G A75C]	1.06
UAACAGGGGGCCACAGCAGAAGCGUUCACGUCGCAGCCCCUGUCAGAUUCUGGUGAAUCUGCGGAUUAUGCUGUAUAUCUC [A64G C68A]	0.2
UAACAGGGGGCCACAGCAGAAGCGUUCACGUCGCAGCCCCUGUCAGAUUCUGGUGAAUCUGCGCAUUCUGCUGUAUACCUC [A64C U78C]	0.28
